According to patent publication US20260028424A1 (GRANULAR THERAPEUTICS, published 2026):

T1: biotinylated cynomolgus CD203c (bio-cyCD203c, Icosagen) (cynomolgus monkey, UniProt A0A2K5TKP4 31-874, biotinylated (site not stated))
T1 construct: Captured on a Biotin CAPture chip for SPR; also called cyno CD203c
T1 sequence: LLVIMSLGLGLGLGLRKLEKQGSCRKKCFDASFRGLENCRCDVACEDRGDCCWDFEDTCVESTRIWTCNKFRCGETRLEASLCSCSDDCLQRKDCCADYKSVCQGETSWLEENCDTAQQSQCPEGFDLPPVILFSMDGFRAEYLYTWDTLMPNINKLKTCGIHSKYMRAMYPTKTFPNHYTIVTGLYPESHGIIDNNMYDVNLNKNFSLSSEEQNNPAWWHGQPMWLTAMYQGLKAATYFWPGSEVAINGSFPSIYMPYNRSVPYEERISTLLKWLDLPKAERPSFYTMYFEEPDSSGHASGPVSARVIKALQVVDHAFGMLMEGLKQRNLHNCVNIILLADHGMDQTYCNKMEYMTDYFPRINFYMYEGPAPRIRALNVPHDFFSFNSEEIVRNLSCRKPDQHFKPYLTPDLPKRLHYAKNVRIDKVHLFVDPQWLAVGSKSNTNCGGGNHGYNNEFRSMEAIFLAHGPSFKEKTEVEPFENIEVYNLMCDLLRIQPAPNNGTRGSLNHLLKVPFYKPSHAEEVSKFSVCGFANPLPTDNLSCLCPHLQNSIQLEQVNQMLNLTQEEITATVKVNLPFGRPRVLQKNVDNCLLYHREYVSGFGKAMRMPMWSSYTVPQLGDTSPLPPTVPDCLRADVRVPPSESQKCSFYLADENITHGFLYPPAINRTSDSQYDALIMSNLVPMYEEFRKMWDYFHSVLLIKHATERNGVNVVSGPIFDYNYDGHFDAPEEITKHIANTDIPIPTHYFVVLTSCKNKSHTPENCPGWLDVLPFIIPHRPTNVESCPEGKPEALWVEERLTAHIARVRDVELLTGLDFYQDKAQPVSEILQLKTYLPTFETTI

T2: biotinylated human CD203c (bio-huCD203c, Acro, Cat. nr. H52H4) (human, UniProt O14638 49-875, limits assumed, biotinylated (site not stated))
T2 construct: Captured on a Biotin CAPture chip for SPR
T2 sequence (looked up): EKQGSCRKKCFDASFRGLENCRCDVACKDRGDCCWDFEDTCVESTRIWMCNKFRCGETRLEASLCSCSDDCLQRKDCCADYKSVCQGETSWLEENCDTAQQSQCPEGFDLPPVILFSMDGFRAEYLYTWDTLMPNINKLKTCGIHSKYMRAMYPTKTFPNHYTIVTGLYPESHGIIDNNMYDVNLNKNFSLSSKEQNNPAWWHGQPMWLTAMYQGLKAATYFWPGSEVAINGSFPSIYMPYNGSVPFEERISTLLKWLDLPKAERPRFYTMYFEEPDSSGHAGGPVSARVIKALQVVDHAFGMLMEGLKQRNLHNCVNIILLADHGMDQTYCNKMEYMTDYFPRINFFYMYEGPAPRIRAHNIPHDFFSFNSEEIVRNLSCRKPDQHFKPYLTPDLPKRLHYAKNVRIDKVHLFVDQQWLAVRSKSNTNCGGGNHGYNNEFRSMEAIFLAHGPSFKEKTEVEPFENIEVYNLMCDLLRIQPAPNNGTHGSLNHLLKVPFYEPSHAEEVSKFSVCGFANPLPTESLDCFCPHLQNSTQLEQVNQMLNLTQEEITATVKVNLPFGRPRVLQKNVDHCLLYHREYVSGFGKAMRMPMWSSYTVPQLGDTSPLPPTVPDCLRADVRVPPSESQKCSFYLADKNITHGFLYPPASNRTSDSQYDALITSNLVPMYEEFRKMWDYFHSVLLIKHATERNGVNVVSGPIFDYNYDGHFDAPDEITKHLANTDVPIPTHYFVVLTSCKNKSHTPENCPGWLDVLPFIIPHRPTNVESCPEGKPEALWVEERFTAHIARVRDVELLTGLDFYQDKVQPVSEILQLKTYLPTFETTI

T3: human CD203c expressed on the surface of KU812 cells (human, UniProt O14638 1-875)
T3 construct: whole, on cells; also called cell-surface CD203c; cell surface CD203c on KU812 cells
T3 sequence (looked up): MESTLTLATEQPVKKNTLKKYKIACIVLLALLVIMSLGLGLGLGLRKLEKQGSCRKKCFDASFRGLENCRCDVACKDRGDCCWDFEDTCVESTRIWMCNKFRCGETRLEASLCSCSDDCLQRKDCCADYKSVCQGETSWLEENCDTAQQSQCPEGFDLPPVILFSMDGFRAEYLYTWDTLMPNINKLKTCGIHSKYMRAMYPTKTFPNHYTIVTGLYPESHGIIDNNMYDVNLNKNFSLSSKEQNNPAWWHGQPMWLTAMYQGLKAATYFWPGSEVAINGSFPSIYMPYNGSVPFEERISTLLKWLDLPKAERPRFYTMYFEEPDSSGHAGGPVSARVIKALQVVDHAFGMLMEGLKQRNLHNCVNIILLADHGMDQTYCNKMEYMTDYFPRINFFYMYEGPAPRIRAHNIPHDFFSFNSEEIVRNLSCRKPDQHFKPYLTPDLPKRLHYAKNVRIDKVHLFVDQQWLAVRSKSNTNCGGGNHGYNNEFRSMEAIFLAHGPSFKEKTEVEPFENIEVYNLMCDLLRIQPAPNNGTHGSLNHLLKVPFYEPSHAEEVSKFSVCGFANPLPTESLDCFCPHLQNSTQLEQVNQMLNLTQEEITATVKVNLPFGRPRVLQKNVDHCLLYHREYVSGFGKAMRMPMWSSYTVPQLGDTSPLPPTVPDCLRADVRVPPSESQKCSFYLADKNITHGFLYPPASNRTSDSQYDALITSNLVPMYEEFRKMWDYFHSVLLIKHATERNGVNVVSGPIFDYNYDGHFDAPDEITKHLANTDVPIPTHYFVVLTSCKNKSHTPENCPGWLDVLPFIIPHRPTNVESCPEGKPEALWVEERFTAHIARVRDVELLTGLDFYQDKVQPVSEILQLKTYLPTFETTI


Assays:
human c-Kit (SPR) = human c-Kit (SPR) (human, UniProt P10721 26-520, limits assumed); assay: SPR, single-cycle kinetics, Human C-kit
Chain of human c-Kit (SPR) (P10721 26-520 limits assumed): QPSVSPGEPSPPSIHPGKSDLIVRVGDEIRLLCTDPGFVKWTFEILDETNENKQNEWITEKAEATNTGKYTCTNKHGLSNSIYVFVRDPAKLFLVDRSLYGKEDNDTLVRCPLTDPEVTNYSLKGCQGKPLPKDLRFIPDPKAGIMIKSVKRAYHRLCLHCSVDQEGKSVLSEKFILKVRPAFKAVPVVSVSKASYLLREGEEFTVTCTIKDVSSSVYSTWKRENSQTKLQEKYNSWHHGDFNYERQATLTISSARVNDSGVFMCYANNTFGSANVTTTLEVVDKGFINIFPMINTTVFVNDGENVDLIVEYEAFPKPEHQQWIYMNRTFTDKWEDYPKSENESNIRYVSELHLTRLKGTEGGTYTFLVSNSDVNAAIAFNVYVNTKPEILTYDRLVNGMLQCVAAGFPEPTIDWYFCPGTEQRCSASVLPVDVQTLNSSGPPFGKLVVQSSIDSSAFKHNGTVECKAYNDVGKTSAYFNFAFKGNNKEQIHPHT

c-Kit on KU812 cells [1] = target: T4, c-Kit on KU812 cells (UniProt P10721 26-976, limits assumed); assay: flow cytometry on KU812 cells, which carry both c-Kit and CD203c (median fluorescence intensity); signal not separated by target
T4 construct: whole, on cells; also called c-Kit receptor; CD117
T4 sequence (P10721 26-976 limits assumed): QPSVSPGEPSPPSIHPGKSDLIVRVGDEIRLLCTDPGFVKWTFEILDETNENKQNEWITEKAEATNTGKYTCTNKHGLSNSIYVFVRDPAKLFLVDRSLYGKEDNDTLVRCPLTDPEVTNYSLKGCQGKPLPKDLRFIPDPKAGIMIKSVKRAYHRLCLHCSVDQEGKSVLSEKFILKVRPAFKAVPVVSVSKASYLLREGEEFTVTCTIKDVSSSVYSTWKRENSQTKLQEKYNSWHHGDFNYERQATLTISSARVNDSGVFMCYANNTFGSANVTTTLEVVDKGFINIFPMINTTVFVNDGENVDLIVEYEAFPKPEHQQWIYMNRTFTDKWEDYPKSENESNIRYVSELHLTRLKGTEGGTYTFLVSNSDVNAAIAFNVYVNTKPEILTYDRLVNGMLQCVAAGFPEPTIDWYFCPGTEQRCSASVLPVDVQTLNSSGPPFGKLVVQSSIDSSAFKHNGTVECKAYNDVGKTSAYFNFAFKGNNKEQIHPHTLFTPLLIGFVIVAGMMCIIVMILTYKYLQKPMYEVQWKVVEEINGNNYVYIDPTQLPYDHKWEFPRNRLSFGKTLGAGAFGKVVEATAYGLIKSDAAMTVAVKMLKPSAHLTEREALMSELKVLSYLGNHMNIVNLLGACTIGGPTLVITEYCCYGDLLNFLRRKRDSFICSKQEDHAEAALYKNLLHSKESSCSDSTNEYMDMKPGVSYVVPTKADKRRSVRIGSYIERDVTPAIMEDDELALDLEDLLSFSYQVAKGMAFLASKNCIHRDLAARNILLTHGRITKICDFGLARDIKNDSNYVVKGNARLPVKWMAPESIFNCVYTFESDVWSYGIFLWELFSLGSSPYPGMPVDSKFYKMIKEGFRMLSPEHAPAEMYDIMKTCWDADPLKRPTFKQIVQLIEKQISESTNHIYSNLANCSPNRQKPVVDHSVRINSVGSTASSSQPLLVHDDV
Procedure: (§1) All treatments were performed on cells seeded in T75 flasks at a seeding density of 0.3e6/ml. Cells were cultured in the presence of 80 ng/ml of SCF and treated with 20 ng/ml of IL3 24 hours prior to antibody staining. Following SCF/IL3 treatment, cells were harvested and stained with live dead stain (Zombie UV Biolegend 423108). Cells were then stained with a titration of anti-CD203c antibodies/bispecifics or respective isotype controls in a 5-fold dilution series starting at 50 μg/mL and detected with Anti human-Fc AF647 antibody (JIR 109-605-098). Samples were subsequently run on a Yeti analyzer, gating on 10K live cells. Subsequent analysis was performed using FlowJo software and data represented as MFI (median fluorescent intensity).

cyno c-Kit (SPR) = cyno c-Kit (SPR) (cyno, UniProt F6V858 26-520 (rhesus entry)); assay: SPR, single-cycle kinetics, Cynomolgus C-kit
Chain of cyno c-Kit (SPR) (chain, as listed by the source): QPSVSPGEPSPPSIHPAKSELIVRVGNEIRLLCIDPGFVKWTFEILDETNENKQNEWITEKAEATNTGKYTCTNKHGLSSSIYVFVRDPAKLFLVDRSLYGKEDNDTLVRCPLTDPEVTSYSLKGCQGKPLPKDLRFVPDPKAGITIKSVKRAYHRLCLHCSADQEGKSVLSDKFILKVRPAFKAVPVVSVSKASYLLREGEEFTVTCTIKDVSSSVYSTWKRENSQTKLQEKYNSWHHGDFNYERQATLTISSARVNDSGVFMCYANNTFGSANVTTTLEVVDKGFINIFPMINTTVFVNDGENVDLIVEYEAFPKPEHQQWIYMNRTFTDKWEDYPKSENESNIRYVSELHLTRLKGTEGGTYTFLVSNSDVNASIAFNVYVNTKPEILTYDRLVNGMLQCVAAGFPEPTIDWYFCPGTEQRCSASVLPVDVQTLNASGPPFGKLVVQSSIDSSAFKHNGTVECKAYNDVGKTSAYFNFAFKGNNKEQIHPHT

[2] = target: T1, biotinylated cynomolgus CD203c …; assay: SPR, single-cycle protocol, Bio-cyCD203c; table gives Rmax, Chi2 and KD only
[3] = target: T2, biotinylated human CD203c …; assay: SPR, single-cycle protocol, Bio-huCD203c; table gives Rmax, Chi2 and KD only
c-Kit on KU812 cells [4] = target: T4, c-Kit on KU812 cells; assay: flow cytometry on KU812 cells, which carry both c-Kit and CD203c (median fluorescence intensity); signal not separated by target; no unit follows the number, the axis is in nM and the dotted line stands at about 0.2
Procedure: as §1

[5] = target: T3, human CD203c expressed on the surface …; assay: as above
Procedure: as §1

[6] = target: T3, human CD203c expressed on the surface …; assay: flow cytometry on KU812 cells, which carry both c-Kit and CD203c (median fluorescence intensity); signal not separated by target
Procedure: as §1

Kd (human c-Kit (SPR)) [µM] | koff (human c-Kit (SPR)) [s⁻¹] | kon (human c-Kit (SPR)) [M⁻¹ s⁻¹] | EC50 (c-Kit on KU812 cells [1]) [µM] | Kd (cyno c-Kit (SPR)) [µM] | koff (cyno c-Kit (SPR)) [s⁻¹] | kon (cyno c-Kit (SPR)) [M⁻¹ s⁻¹] | Kd [2] [µM] | Kd [3] [µM] | EC50 (c-Kit on KU812 cells [4]) [µM] | EC50 [5] [µM] | EC50 [6] [µM] | Binder
0.0451 | 0.00978 | 217000 | 0.000548 | 0.0527 | 0.0159 | 301000 |  |  |  |  |  | MH1/F6.12 bispecific (parental, before pI engineering) (bispecific antibody, V domains shown, Knob-in-hole IgG1null bispecific with human Ckappa; also called parental bispecific MH1/F6.12) VH 1: QVQLVQSGAEVKKPGASVKVSCKASGYTFTDYYMNWVRQAPGQGLEWMGRIYPGSGNTYYAQKFQGRVTMTRDTSTSTVYMELSSLRSEDTAVYYCARGVYYYDYWGQGTLVTVSS VH 2: EVQLVQSGAEVKKPGESLKISCKGSGYRFASNWIGWVRQMPGKGLEWMGEIYPGDSNTRYSPSFQGQVTISADKSISTAYLQWSSLKASDTAMYYCARKDYYYGIMDVWGQGTTVTVSS VL: DIQMTQSPSSLSASVGDRVTITCRASQGIRTNLAWFQQKPGKAPKSLIYAASSLQSGVPSRFSGSGSGTDFTLTISSLQPEDFATYYCQQYNSYPRTFGGGTKVEIK
0.0861 | 0.0171 | 199000 |  | 0.0913 | 0.0272 | 297000 | 0.0518 | 0.0848 |  |  |  | FJ2156_MH1_A x F6_12C huIgG1 KIH (bispecific antibody, V domains shown, also called MH1_A/F6.12_C) VH 1: EVQLVQSGAEVKKPGASVKVSCKASGYTFTDYYMNWVRQAPGQGLEWMGRIYPGSGNTYYAQKFQDRVTMTRDTSTSTVYMELSSLRSEDTAVYYCARGVYYYDYWGQGTLVTVSS VH 2: QVQLVQSGAEVKKPGESLKISCKGSGYRFASNWIGWVRQMPGKGLEWMGEIYPGDSNTRYRPSFQGQVTISADKSISTAYLQWSSLKASDTAMYYCARKDYYYGIMDVWGQGTTVTVSS VL: DIQMTQSPSSLSASVGDRVTITCRASQGIRTNLAWFQQKPGKAPKSLIYAASSLQSGVPSRFSGSGSGTDFTLTISSLQPEDFATYYCQQYNSYPRTFGGGTKVEIK
0.043 | 0.00919 | 214000 |  | 0.0523 | 0.0152 | 291000 | 0.0631 | 0.0792 | 0.000214 | 0.000214 |  | MH1_C/F6.12_D bispecific (pI-engineered) (bispecific antibody, V domains shown, Knob-in-hole IgG1null bispecific with human Ckappa) VH 1: QVQLVQSGAEVKEPGASVKVSCKASGYTFTDYYMNWVRQAPGQGLEWMGRIYPGSGNTYYAQNFQGRVTMTRDTSTSTVYMELSSLRSEDTAVYYCARGVYYYDYWGQGTLVTVSS VH 2: QVQLVQSGAEVKKPGESLKISCKGSGYRFASNWIGWVRQMPGKGLEWMGEIYPGDSNTRYSPSFQGQVTISADKSISTAYLQWSRLKASDTAMYYCARKDYYYGIMDVWGQGTTVTVSS VL: DIQMTQSPSSLSASVGDRVTITCRASQGIRTNLAWFQQKPGKAPKSLIYAASSLQSGVPSRFSGSGSGTDFTLTISSLQPEDFATYYCQQYNSYPRTFGGGTKVEIK
0.0827 | 0.0166 | 201000 |  | 0.0955 | 0.0277 | 291000 | 0.0682 | 0.0985 |  |  |  | FJ2156_MH1_A x F6_12B huIgG1 KIH (bispecific antibody, V domains shown, also called MH1_A/F6.12_B) VH 1: EVQLVQSGAEVKKPGASVKVSCKASGYTFTDYYMNWVRQAPGQGLEWMGRIYPGSGNTYYAQKFQDRVTMTRDTSTSTVYMELSSLRSEDTAVYYCARGVYYYDYWGQGTLVTVSS VH 2: QVQLVQSGAEVKKPGESLKISCKGSGYRFASNWIGWVRQMPGKGLQWMGEIYPGDSNTRYSPSFQGQVTISADKSISTAYLQWSSLKASDTAMYYCARKDYYYGIMDVWGQGTTVTVSS VL: DIQMTQSPSSLSASVGDRVTITCRASQGIRTNLAWFQQKPGKAPKSLIYAASSLQSGVPSRFSGSGSGTDFTLTISSLQPEDFATYYCQQYNSYPRTFGGGTKVEIK
0.0445 | 0.00949 | 213000 | 0.000238 | 0.0524 | 0.0155 | 295000 | 0.0758 | 0.108 |  |  | 0.000238 | FJ2156_MH1_C x F6_12B huIgG1 KIH (bispecific antibody, V domains shown, also called MH1_C/F6.12_B) VH 1: QVQLVQSGAEVKEPGASVKVSCKASGYTFTDYYMNWVRQAPGQGLEWMGRIYPGSGNTYYAQNFQGRVTMTRDTSTSTVYMELSSLRSEDTAVYYCARGVYYYDYWGQGTLVTVSS VH 2: QVQLVQSGAEVKKPGESLKISCKGSGYRFASNWIGWVRQMPGKGLQWMGEIYPGDSNTRYSPSFQGQVTISADKSISTAYLQWSSLKASDTAMYYCARKDYYYGIMDVWGQGTTVTVSS VL: DIQMTQSPSSLSASVGDRVTITCRASQGIRTNLAWFQQKPGKAPKSLIYAASSLQSGVPSRFSGSGSGTDFTLTISSLQPEDFATYYCQQYNSYPRTFGGGTKVEIK
